Measurements taken from patent US20090192084A1 (CALIFORNIA INSTITUTE OF TECHNOLOGY, published 2009).

B1: Flag-UBXD3 (other, UniProt Q96LJ8 1-280, looked up)
chain: MATEAPVNIAPPECSTVVSTAVDSLIWQPNSLNMHMIRPKSAKGRTRPSLQKSQGVEVCAHHIPSPPPAIPYELPSSQKPGACAPKSPNQGASDEIPELQQQVPTGASSSLNKYPVLPSINRKNLEEEAVETVAKKASSLQLSSIRALYQDETGTMKTSEEDSRARACAVERKFIVRTKKQGSSRAGNLEEPSDQEPRLLLAVRSPTGQRFVRHFRPTDDLQTIVAVAEQKNKTSYRHCSIETMEVPRRRFSDLTKSLQECRIPHKSVLGISLEDGEGWP
notes: also called RDB 2149; not shown: N-terminal Flag tag
B2: Flag-UBXD6 (other, UniProt O00124 1-270, looked up)
chain: MASRGVVGIFFLSAVPLVCLELRRGIPDIGIKDFLLLCGRILLLLALLTLIISVTTSWLNSFKSPQVYLKEEEEKNEKRQKLVRKKQQEAQGEKASRYIENVLKPHQEMKLRKLEERFYQMTGEAWKLSSGHKLGGDEGTSQTSFETSNREAAKSQNLPKPLTEFPSPAEQPTCKEIPDLPEEPSQTAEEVVTVALRCPSGNVLRRRFLKSYSSQVLFDWMTRIGYHISLYSLSTSFPRRPLAVEGGQSLEDIGITVDTVLILEEKEQTN
notes: also called Rep-8/UBXD6; RDB 2145; not shown: N-terminal Flag tag
B3: Flag-ASPL (other, UniProt Q9BZE9 1-553, looked up)
chain: MAAPAGGGGSAVSVLAPNGRRHTVKVTPSTVLLQVLEDTCRRQDFNPCEYDLKFQRSVLDLSLQWRFANLPNNAKLEMVPASRSREGPENMVRIALQLDDGSRLQDSFCSGQTLWELLSHFPQIRECLQHPGGATPVCVYTRDEVTGEAALRGTTLQSLGLTGGSATIRFVMKCYDPVGKTPGSLGSSASAGQAAASAPLPLESGELSRGDLSRPEDADTSGPCCEHTQEKQSTRAPAAAPFVPFSGGGQRLGGPPGPTRPLTSSSAKLPKSLSSPGGPSKPKKSKSGQDPQQEQEQERERDPQQEQERERPVDREPVDREPVVCHPDLEERLQAWPAELPDEFFELTVDDVRRRLAQLKSERKRLEEAPLVTKAFREAQIKEKLERYPKVALRVLFPDRYVLQGFFRPSETVGDLRDFVRSHLGNPELSFYLFITPPKTVLDDHTQTLFQANLFPAALVHLGAEEPAGVYLEPGLLEHAISPSAADVLVARYMSRAAGSPSPLPAPDPAPKSEPAAEEGALVPPEPIPGTAQPVKRSLGKVPKWLKLPASKR
notes: also called RDB 2144; not shown: N-terminal Flag tag
B4: Flag-FAF1 (other, UniProt Q9UNN5 1-650, looked up)
chain: MASNMDREMILADFQACTGIENIDEAITLLEQNNWDLVAAINGVIPQENGILQSEYGGETIPGPAFNPASHPASAPTSSSSSAFRPVMPSRQIVERQPRMLDFRVEYRDRNVDVVLEDTCTVGEIKQILENELQIPVSKMLLKGWKTGDVEDSTVLKSLHLPKNNSLYVLTPDLPPPSSSSHAGALQESLNQNFMLIITHREVQREYNLNFSGSSTIQEVKRNVYDLTSIPVRHQLWEGWPTSATDDSMCLAESGLSYPCHRLTVGRRSSPAQTREQSEEQITDVHMVSDSDGDDFEDATEFGVDDGEVFGMASSALRKSPMMPENAENEGDALLQFTAEFSSRYGDCHPVFFIGSLEAAFQEAFYVKARDRKLLAIYLHHDESVLTNVFCSQMLCAESIVSYLSQNFITWAWDLTKDSNRARFLTMCNRHFGSVVAQTIRTQKTDQFPLFLIIMGKRSSNEVLNVIQGNTTVDELMMRLMAAMEIFTAQQQEDIKDEDEREARENVKREQDEAYRLSLEADRAKREAHEREMAEQFRLEQIRKEQEEEREAIRLSLEQALPPEPKEENAEPVSKLRIRTPSGEFLERRFLASNKLQIVFDFVASKGFPWDEYKLLSTFPRRDVTQLDPNKSLLEVKLFPQETLFLEAKE
notes: also called RDB 2151; not shown: N-terminal Flag tag
B5: Flag-UBXD1 (other, UniProt Q9BZV1 1-441, looked up)
chain: MKKFFQEFKADIKFKSAGPGQKLKESVGEKAHKEKPNQPAPRPPRQGPTNEAQMAAAAALARLEQKQSRAWGPTSQDTIRNQVRKELQAEATVSGSPEAPGTNVVSEPREEGSAHLAVPGVYFTCPLTGATLRKDQRDACIKEAILLHFSTDPVAASIMKIYTFNKDQDRVKLGVDTIAKYLDNIHLHPEEEKYRKIKLQNKVFQERINCLEGTHEFFEAIGFQKVLLPAQDQEDPEEFYVLSETTLAQPQSLERHKEQLLAAEPVRAKLDRQRRVFQPSPLASQFELPGDFFNLTAEEIKREQRLRSEAVERLSVLRTKAMREKEEQRGLRKYNYTLLRVRLPDGCLLQGTFYARERLGAVYGFVREALQSDWLPFELLASGGQKLSEDENLALNECGLVPSALLTFSWDMAVLEDIKAAGAEPDSILKPELLSAIEKLL
notes: also called RDB 2152; not shown: N-terminal Flag tag
B6: Flag-SAKS1 (other, UniProt Q04323 1-297, looked up)
chain: MAELTALESLIEMGFPRGRAEKALALTGNQGIEAAMDWLMEHEDDPDVDEPLETPLGHILGREPTSSEQGGLEGSGSAAGEGKPALSEEERQEQTKRMLELVAQKQREREEREEREALERERQRRRQGQELSAARQRLQEDEMRRAAEERRREKAEELAARQRVREKIERDKAERAKKYGGSVGSQPPPVAPEPGPVPSSPSQEPPTKREYDQCRIQVRLPDGTSLTQTFRAREQLAAVRLYVELHRGEELGGGQDPVQLLSGFPRRAFSEADMERPLQELGLVPSAVLIVAKKCPS
notes: also called RDB 2150; not shown: N-terminal Flag tag
B7: Flag-UBXD8 (other, UniProt Q96CS3 1-445, looked up)
chain: MAAPEERDLTQEQTEKLLQFQDLTGIESMDQCRHTLEQHNWNIEAAVQDRLNEQEGVPSVFNPPPSRPLQVNTADHRIYSYVVSRPQPRGLLGWGYYLIMLPFRFTYYTILDIFRFALRFIRPDPRSRVTDPVGDIVSFMHSFEEKYGRAHPVFYQGTYSQALNDAKRELRFLLVYLHGDDHQDSDEFCRNTLCAPEVISLINTRMLFWACSTNKPEGYRVSQALRENTYPFLAMIMLKDRRMTVVGRLEGLIQPDDLINQLTFIMDANQTYLVSERLEREERNQTQVLRQQQDEAYLASLRADQEKERKKREERERKRRKEEEVQQQKLAEERRRQNLQEEKERKLECLPPEPSPDDPESVKIIFKLPNDSRVERRFHFSQSLTVIHDFLFSLKESPEKFQIEANFPRRVLPCIPSEEWPNPPTLQEAGLSHTEVLFVQDLTDE
notes: also called RDB 2143; not shown: N-terminal Flag tag
B8: Flag-UBXD2 (other, UniProt Q92575 1-508, looked up)
chain: MLWFQGAIPAAIATAKRSGAVFVVFVAGDDEQSTQMAASWEDDKVTEASSNSFVAIKIDTKSEACLQFSQIYPVVCVPSSFFIGDSGIPLEVIAGSVSADELVTRIHKVRQMHLLKSETSVANGSQSESSVSTPSASFEPNNTCENSQSRNAELCEIPPTSDTKSDTATGGESAGHATSSQEPSGCSDQRPAEDLNIRVERLTKKLEERREEKRKEEEQREIKKEIERRKTGKEMLDYKRKQEEELTKRMLEERNREKAEDRAARERIKQQIALDRAERAARFAKTKEEVEAAKAAALLAKQAEMEVKRESYARERSTVARIQFRLPDGSSFTNQFPSDAPLEEARQFAAQTVGNTYGNFSLATMFPRREFTKEDYKKKLLDLELAPSASVVLLPAGRPTASIVHSSSGDIWTLLGTVLYPFLAIWRLISNFLFSNPPPTQTSVRVTSSEPPNPASSSKSEKREPVRKRVLEKRGDDFKKEGKIYRLRTQDDGEDENNTWNGNSTQQM
notes: also called RDB 2153; not shown: N-terminal Flag tag

Tests used:
endogenous p97 = molecular target: T1, endogenous p97 (human, UniProt P55072 2-806); experiment: Flag co-IP, 293 cells, MudPIT MS
T1 construct: also called VCP
Protocol: For immunoprecipitation experiments, the cells were lysed in buffer A (50 mM HEPES/KOH, pH 7.5; 5 mM Mg(OAc)₂; 70 mM KOAc; 0.2% Triton X-100; 10% glycerol; 0.2 mM EDTA; protease inhibitors) and incubated with anti-Flag agarose beads (Sigma) or anti-Myc sepharose beads (Covance).
Mass spectrometrical sample analysis was performed as described previously (Graumann et al., 2004) using a high-pressure liquid chromatography pump (Agilent) in line to a LCQ DecaXP electrospray ion trap mass spectrometer (ThermoFinnigan). In brief, 2-4 mg of protein extract were incubated with anti-Flag or anti-Myc beads and the immunoprecipitated proteins were eluted with saturated urea. The eluates were then proteolitically digested using sequentially endoproteinase Lys-C and trypsin. The resulting peptide mixtures were pressure-loaded onto triphasic microcapillary columns and sample separation was achieved using a chromatography program consisting of six salt steps, each followed by an organic gradient. The eluting peptides were electrosprayed into the mass spectrometer and the column eluate was continuously analyzed. One full-range mass scan ([…]) was followed by three data-dependent tandem mass spectrometry (MS/MS) spectra. Sequence database matching was performed against the IPI human database (Kersey et al., 2004) version 3.15.1 using Sequest (Eng et al., 1994) and the results were filtered with DTASelect (Tabb et al., 2002), using the parameters indicated in Graumann et al. (2004).

[1] = molecular target: T2, Ubiquitin conjugation factor E4 B, UBE4B (Ufd2ortholog) (human, UniProt O95155 1-1302); experiment: co-IP, MudPIT MS
T2 sequence (looked up): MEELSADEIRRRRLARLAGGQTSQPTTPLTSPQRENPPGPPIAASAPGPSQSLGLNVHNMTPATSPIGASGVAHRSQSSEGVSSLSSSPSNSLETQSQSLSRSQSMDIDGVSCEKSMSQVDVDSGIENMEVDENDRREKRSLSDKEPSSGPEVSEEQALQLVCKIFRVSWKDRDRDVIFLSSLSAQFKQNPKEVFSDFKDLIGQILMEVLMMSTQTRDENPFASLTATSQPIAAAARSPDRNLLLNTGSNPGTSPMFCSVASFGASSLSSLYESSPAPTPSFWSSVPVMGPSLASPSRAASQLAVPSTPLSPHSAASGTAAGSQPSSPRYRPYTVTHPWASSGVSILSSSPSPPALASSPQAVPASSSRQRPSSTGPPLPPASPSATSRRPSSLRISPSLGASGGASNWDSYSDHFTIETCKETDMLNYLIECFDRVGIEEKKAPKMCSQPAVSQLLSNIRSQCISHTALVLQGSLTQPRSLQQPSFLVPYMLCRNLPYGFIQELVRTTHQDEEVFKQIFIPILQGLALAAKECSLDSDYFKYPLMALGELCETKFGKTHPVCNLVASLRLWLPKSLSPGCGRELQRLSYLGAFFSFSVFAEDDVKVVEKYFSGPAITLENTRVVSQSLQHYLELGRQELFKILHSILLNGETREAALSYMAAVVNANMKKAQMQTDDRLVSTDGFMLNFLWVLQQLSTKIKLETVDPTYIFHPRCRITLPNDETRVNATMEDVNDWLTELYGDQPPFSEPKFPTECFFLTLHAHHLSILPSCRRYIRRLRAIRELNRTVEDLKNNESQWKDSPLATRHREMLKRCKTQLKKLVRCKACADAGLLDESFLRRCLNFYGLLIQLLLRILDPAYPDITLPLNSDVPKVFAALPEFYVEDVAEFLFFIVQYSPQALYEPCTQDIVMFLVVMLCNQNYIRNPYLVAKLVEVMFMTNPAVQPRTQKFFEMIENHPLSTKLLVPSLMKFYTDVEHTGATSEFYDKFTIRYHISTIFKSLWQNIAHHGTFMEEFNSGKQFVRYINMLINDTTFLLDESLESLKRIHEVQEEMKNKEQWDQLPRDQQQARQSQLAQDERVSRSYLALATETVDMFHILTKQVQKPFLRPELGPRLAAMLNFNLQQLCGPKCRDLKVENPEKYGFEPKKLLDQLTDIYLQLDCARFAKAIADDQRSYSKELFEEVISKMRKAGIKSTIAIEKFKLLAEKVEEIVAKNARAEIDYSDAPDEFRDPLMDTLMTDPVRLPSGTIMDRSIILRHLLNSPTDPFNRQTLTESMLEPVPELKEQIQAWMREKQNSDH

Binder | sequence count (endogenous p97) | sequence coverage (endogenous p97) | spectrum count (endogenous p97) | binding result [1]
B1 | 57 | 64.5% | 254 | 
B2 | 55 | 59.5% | 212 | 
B3 | 154 | 78.5% | 1440 | 
B4 | 84 | 68.9% | 539 | no binding
B5 | 159 | 84.3% | 1130 | 
B6 | 68 | 57.4% | 663 | 
B7 | 48 | 57.6% | 3090 | no binding
B8 | 27 | 41.1% | 958 | 
